Assay results: the supplement of paper PMC9170038

System: MS2 coat protein
Assay: apparent KD of MS2 coat protein; designed switch direction (-1 OFF switch, 1 ON switch): -1; higher = weaker reporter binding
Method in brief: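 SNAP-549-labelled MS2 coat protein was titrated, doubling from 0.7 or 1.5 nM to 3 µM, over designed RNA switches transcribed on Illumina chips by stalled E. coli RNA polymerase. Runs were done without input, with 200 uM small-molecule ligand, or with an oligonucleotide input. Apparent KD is the per-design median over clusters of curve-fitted normalised fluorescence.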

[1] = input ligand: microRNA oligo, concentration not stated
[2] = Eterna round: R95, input ligand: microRNA oligo, concentration not stated
[3] = Eterna round: R95, input ligand: FMN 200 uM
[4] = Eterna round: R95, input ligand: none

Row | Sequence | apparent KD of MS2 coat protein (input ligand: FMN 200 uM) | apparent KD of MS2 coat protein [1] | apparent KD of MS2 coat protein (input ligand: none) | apparent KD of MS2 coat protein [2] | apparent KD of MS2 coat protein [3] | apparent KD of MS2 coat protein [4]
1 | CAUGUCCAACGAGGAUAUGGUAAAGGAAGUGUACCAGAAGGCGUGCGGACAUGAGGAUCACCCAUGUCGCGCGGUGCGAUGUGG [MOD3 Nando EXNG 1.1] (Eterna round: R96, puzzle: Exclusion NG 1) | 37.2 nM | 15.8 nM | 29.3 nM |  |  | 
2 | UAAAAGCGAGGAUAUACAUGAGGAUCACCCAUGUGAGGCGAAACGCCUCGGGCCAUCAGUAGAAGGUGCAAAAC [Veorgebe] (puzzle: Exclusion 3) |  |  |  | 70.7 nM |  | 
3 | GUGGUGACAGGAUAUACAUGAGGAUCACCCAUGUGAGGAGGACGAGACAGGUGAAGGAGUAGAAGGGUCAGAGG [JR_Exclu3_Sub027] (puzzle: Exclusion 3) |  |  |  | 74.5 nM | 66.7 nM | 60.3 nM
4 | GUUAACGCAGGAUAUUAGUACUUUUACAUGAGGAUCACCCAUGUUAAUUGGGUCUAAGAAUAAGAAGGGCGAUGAA [JR_Ex5_Sub009] (Eterna round: R97, puzzle: Exclusion 5) | 48.3 nM |  | 42.8 nM |  |  | 
5 | GCACGGUAAGUGAGGAUAUACCUCUGGAUACAGAGGUAGAAGGCACAUGAGGAUCACCCAUGUCUAUACCGUGC [Fiskers BMX 4 - 81] (puzzle: Brourd's mod of Exclusion 4) |  |  |  | 13.6 nM | 20.3 nM | 13.8 nM
6 | CCAUCGAGUGUGAGGAUAUGCUGGUCCUUGGAUCAGCAGAAGGCACAUGAGGAUCACCCAUGUGAAUACGGUGG [JL bmx4 3.20] (puzzle: Brourd's mod of Exclusion 4) |  |  |  | 28.3 nM |  | 
7 | GAUAUGCGUGUGAGGAUAUUCGACGCGCAAACGGAGAAGAAGGCACAUGAGGAUCACCCAUGUGGAGGGAAGAA [BmEX4 A.13] (Eterna round: R97, puzzle: Brourd's mod of Exclusion 4) | 82.8 nM |  | 20.7 nM |  |  | 
8 | AUAUAGUCAGGAUAUCGAAGUGAGUGUUGGUUUGUAAGGUACGAGAAGGGACAUGAGGAUCACCCAUGUAGGAA [JR_Exclusion4)Sub003] (puzzle: Exclusion 4) |  |  |  | 42.7 nM |  | 
9 | AAGACAAAUGUAGGAUAUGCGUGGCGAAGCUAUGCAGAAGGACAUGAGGAUCACCCAUGUCUUAGCGUCUGCGUACAGAUGCUA [JL eng1 1.35 mod 9] (Eterna round: R96, puzzle: Exclusion NG 1) |  | 12.1 nM |  |  |  | 
10 | GUUUUACAUGAGGAUCACCCAUGUGAGGAUAUGUUAUUAAUAGCGAUAGUUAUUGGUGGCAGAAGGCGCGUGAU [JR_Exc1_Sub011] (Eterna round: R97, puzzle: Exclusion 1) | 343 nM |  | 82.6 nM |  |  | 
11 | CAGCCCUGAGGAUAUCCAUCCUUGUACAUGAGGAUCACCCAUGUCUCCCUCUGGGCUUUCGGAGAAGGCAGGUAUC [Megrez-6.2] (Eterna round: R97, puzzle: Exclusion 5) | 43.2 nM |  | 44.5 nM |  |  | 
12 | GUUGUUUAUGUAGGAUAUGCGAGGCGAGCCUAAGCAGAAGGACAUGAGGAUCACCCAUGUAUUGCGGUCUGCGUUCAGAUCGCU [salish99_ExNG1_r4_016] (Eterna round: R96, puzzle: Exclusion NG 1) | 183 nM | 19.2 nM | 26.9 nM |  |  | 
13 | GUGUAGUCAGGAUAUACAGAGGAAGAUAAUACAAUAUAAGUACAUGAGGAUCACCCAUGUAGAAGGGACAGUGU [Excluse me!! 10 - Jieux - Exclusion 2] (puzzle: Exclusion 2) |  |  |  | 25.7 nM |  | 
14 | CUAAAUCAUGUAGGAUAUGCGUGGCAAAGCUAUGCAGAAGGACAUGAGGAUCACCCAUGUCAUUCCGUCUGCGUACAGACGGGA [Mat - Exclusion NG 1 - Mod of JL - D49] (Eterna round: R96, puzzle: Exclusion NG 1) | 187 nM | 19.9 nM | 24.9 nM |  |  | 
15 | AUCCUUAACAAGGAUAUCGGGCGGGUUUUUGUUUGAGAAGGUGUGACAUGAGGAUCACCCAUGUGGCGCGUGGG [-22, -20.4 kcal, A 22%] (Eterna round: R97, puzzle: Exclusion 6) | 285 nM |  | 887 nM |  |  | 
16 | ACAUGAGGAUCACCCAUGUUUGGCUGGUUUUCUCCGGCUGUCGAGGAUAUAGUCCGGUAUCCGCGCUAGAAGGUGAGGGUCGGC [Aenatbe mod 3] (Eterna round: R96, puzzle: Exclusion NG 3) | 12.1 nM | 17.6 nM | 21.6 nM |  |  | 
17 | UUUUUGUGAGGAUAUCAGUAGUAAAAUAAAUAAAUUACUACUGAGAAGGCACAUGAGGAUCACCCAUGUUCCUU [Mat - Exclusion 4 - Mod of Salish - D66] (puzzle: Exclusion 4) |  |  |  | 13.7 nM |  | 

Row | Sequence | apparent KD of MS2 coat protein (input ligand: FMN 200 uM) | apparent KD of MS2 coat protein [1] | apparent KD of MS2 coat protein (input ligand: none) | apparent KD of MS2 coat protein [2] | apparent KD of MS2 coat protein [3] | apparent KD of MS2 coat protein [4]
18 | GGAAGGCGAGGAUAUACAAUAAAGAAAGAGAAAGACGUGAGACAUGAGGAUCACCCAUGUAGAAGGUGCGGAGA [AK-MS2ROC-r4-exclusion2-13] (Eterna round: R97, puzzle: Exclusion 2) | 37.3 nM |  | 34.3 nM |  |  | 
19 | AGCGCCAUCGUGAGAUGGCGUAUUACAUGAGGAUCACCCAUGUAGGAUAUCGAUUGCUUUGCAGUCGAGAAGGACAUGUUUUAG [JL ENG3 3.80 Mod E] (Eterna round: R96, puzzle: Exclusion NG 3) | 200 nM | 69.4 nM | 74.3 nM |  |  | 
20 | CUUUUGUGAGGAUAUCAGUAGUAAUACAAUAGUAUUACUACUGAGAAGGCACAUGAGGAUCACCCAUGUUCUUC [Ex4 344 Omei mod 2] (puzzle: Exclusion 4) |  |  |  | 23.2 nM |  | 
21 | AGAUCUAGGACAGGAUAUACGGAUGUCUUCAUCGAAGAUGAAGACAUUACAUGAGGAUCACCCAUGUAGAAGGGUCCUAGAUCA [Omei Exc(NG) 2Av1] (Eterna round: R96, puzzle: Exclusion NG 2) | 13.8 nM | 10.6 nM | 13.1 nM |  |  | 
22 | GCGCCAUCGUGAGAUGGCGUAAUUACAUGAGGAUCACCCAUGUAGGAUAUCGAUUGCUUUGCAGUCGAGAAGGGCGUGAUAAGU [JL ENG3 3.71] (Eterna round: R96, puzzle: Exclusion NG 3) | 86 nM | 59.5 nM | 68.9 nM |  |  | 
23 | UAUUAGCAAGCGAGAUCCCACAUGAGGAUCACCCAUGUGCUCGUCUUAUAUAAGGUACUGUACGAUAGUACGGUACC [Mat - Sensor, turn-off var - Eli Mod - D28] (Eterna round: R97, puzzle: Sensor, turn-off variant 1) | 16.7 nM |  | 14.6 nM |  |  | 
24 | AAGAAACAUGAGGAUCACCCAUGUGAGGAUAUGAAUAAGAAAAGAAAAGAAAGAAGAAUCAGAAGGCACAAAGG [salish99-ex1_r3_045] (puzzle: Exclusion 1) |  |  |  | 40.5 nM | 49.5 nM | 37.2 nM
25 | UAUUAACAAGCUAGAUCUUACAUGAGGAUCACCCAUGUGCUCGUCUUAUAAGGUACUGUGACGAAAGUCACGGUACC [Sensor 3, v1 - 77] (puzzle: Sensor v3, turn-off variant 1) |  |  |  | 149 nM | 22.7 nM | 22.5 nM
26 | AGAAAAGCCCAUGACCGCAAGCUUUUUGCUUGUCUUACCACAUGAGGAUCACCCAUGUGACAUGGGCUCCUUAUAAU [Atcein] (puzzle: Sensor v3, turn-off variant 2) |  |  |  | 10.2 nM | 13.2 nM | 11.1 nM
27 | GCGGACUCGAUCGUGAGAUCGGAGACAUGAGGAUCACCCAUGUAGGAUAUCGAUUGCUUUGCAGUCGAGAAGGGCGUGGUCCGC [JL denovo 17] (Eterna round: R96, puzzle: Exclusion NG 3) | 152 nM | 98.1 nM | 157 nM |  |  | 
28 | CCUCCACAUGAGGAUCACCCAUGUCAGGAUAUCGUGUGUUUUUUUUCGGUCGUGCGUGCGAGAAGGGACGUCUU (puzzle: Exclusion 1) |  |  |  | 24.8 nM |  | 
29 | CCAGCGUAUGUGAGGAUAUGCUGGUCCUUGGAUCAGCAGAAGGCACAUGAGGAUCACCCAUGUGGAGACGUUGG [JL bmx4 3.42] (puzzle: Brourd's mod of Exclusion 4) |  |  |  | 18 nM |  | 
30 | CGGGCCCAGGCAGGAUAUGUACAGCCACAAAACCCUCGUGUGAGGGACAUGAGGAUCACCCAUGUAUAGAAGGGCCAGCGCGUA [Xeditein] (Eterna round: R96, puzzle: Exclusion NG 2) | 26.3 nM | 14 nM | 22 nM |  |  | 
31 | UUUAGUUCAGGAUAUGUAGAUUUUAACAUGAGGAUCACCCAUGUAGAUCCUGAAUUAACUACAGAAGGGAGCAUUU [Mod of Brourd 16 - Jieux - Exclusion 5] (Eterna round: R97, puzzle: Exclusion 5) | 33.6 nM |  | 18.4 nM |  |  | 
32 | CUGCUCCGUGUAGGAUAUGCAUACCACCACUAUGCAGAAGGACAUGAGGAUCACCCAUGUAUGUUAUUAUCACGUGAAGCGUCC [Design 19] (Eterna round: R96, puzzle: Exclusion NG 1) | 27.8 nM | 18.1 nM | 23.7 nM |  |  | 
33 | UUAAUUACGGUGCUUUAACCUCACAUGAGGAUCACCCAUGUGCAGGAUAUCAGCUCGUUUAGAGCUGAGAAGGGCACUGCACCG [ExNG3/11-A2] (Eterna round: R96, puzzle: Exclusion NG 3) | 13.9 nM | 8.87 nM | 13.5 nM |  |  | 
34 | CCGCAUAUGCAGGAUAUCGUAUCGGAAACGAUACGAGAAGGGUAAACAUGAGGAUCACCCAUGUUCCUUAACGG [Fiskers Ex 6 - 28] (puzzle: Exclusion 6) |  |  |  | 14.6 nM |  | 
